Experimental data as given in the supplement of paper PMC10567573.

B1: ZER1 (parent)
chain: PILRLLPQGISPVSQHWATWALYN

Variants of: B1
Assay: protein stability index of a GFP-peptide fusion (GPS, HEK-293T) (PSI 1-6); higher = more stable
Settings: c terminus: a fixed tail appended
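Also: lentivirally expressed fusions sorted by FACS into six bins by GFP to DsRed ratio, PSI derived from sequencing read proportions per bin multiplied by bin number.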

First: PDLRLLPQGISPVSQHWATWALYN
Second: PCLRLLPQGISPVSQHWATWALYN
The protein stability index of the first is lower: 2.52 for the first, 2.98 for the second.

First: PPLRLLPQGISPVSQHWATWALYN
Second: PILRLLPQGISPVSQRWATWALYN
The protein stability index of the first is lower: 3.08 for the first, 3.32 for the second.

Going from PILRLLPQGISPVSQNWATWALYN to PILRLLPQGISPVSQKWATWALYN, the protein stability index falls from 2.34 to 1.94.

Going from PILRLLPQGISPVSQPWATWALYN to PILRLLPQGISPVSQEWATWALYN, the protein stability index falls from 1.45 to 1.34.

Going from PILRLLPQGISPVSQDWATWALYN to PILRLLPQGISPVSQIWATWALYN, the protein stability index rises from 2.11 to 3.38.

Going from PILRLLPQGIRPVSQHWATWALYN to PILRLLPQGIIPVSQHWATWALYN, the protein stability index falls from 3.06 to 2.53.

Compared with PILRLLPQGIDPVSQHWATWALYN, PILRLLPQGIGPVSQHWATWALYN is lower in protein stability index: 3.26 for the first, 2.17 for the second.

Going from PILRLLPQGIWPVSQHWATWALYN to PILRLLPQGIAPVSQHWATWALYN, the protein stability index rises from 1.59 to 2.83.

First: PILRLLPQGIPPVSQHWATWALYN
Second: PILRLLPQGIMPVSQHWATWALYN
The protein stability index of the first is lower: 1.77 for the first, 1.99 for the second.

Compared with PILRLLPQGIHPVSQHWATWALYN, PILRLLPQGILPVSQHWATWALYN is higher in protein stability index: 2.03 for the first, 2.53 for the second.

Going from PILRLLPQGICPVSQHWATWALYN to PILRLLPQGIVPVSQHWATWALYN, the protein stability index falls from 3.31 to 2.22.

Compared with PILRLLPQGIEPVSQHWATWALYN, SILRLLPQGISPVSQHWATWALYN is lower in protein stability index: 3.05 for the first, 2.07 for the second.

Going from RILRLLPQGISPVSQHWATWALYN to HILRLLPQGISPVSQHWATWALYN, the protein stability index rises from 2 to 2.39.

Compared with TILRLLPQGISPVSQHWATWALYN, FILRLLPQGISPVSQHWATWALYN is higher in protein stability index: 2.19 for the first, 3.24 for the second.

Compared with AILRLLPQGISPVSQHWATWALYN, KILRLLPQGISPVSQHWATWALYN is lower in protein stability index: 5.68 for the first, 2.4 for the second.

Going from PILRLLPQGISPVSKHWATWALYN to PILRLLPQGISPVSVHWATWALYN, the protein stability index rises from 2.97 to 3.31.

Compared with PILRLLPQGISPVSEHWATWALYN, PILRLLPQGISPVSLHWATWALYN is lower in protein stability index: 2.19 for the first, 1.94 for the second.

First: PILRLLPQGISPVSMHWATWALYN
Second: PILRLLPQGISPVSGHWATWALYN
The protein stability index of the first is higher: 4.6 for the first, 1 for the second.

First: PILRLLPQGISPVSNHWATWALYN
Second: PILRLLPQGISPVSFHWATWALYN
The protein stability index of the first is higher: 2.99 for the first, 2.68 for the second.

First: PILRLLPQGISPVSTHWATWALYN
Second: PILRLLPQGISPVSQHEATWALYN
The protein stability index of the first is higher: 3.05 for the first, 2.35 for the second.

Going from PILRLLPQGISPVSQHAATWALYN to PILRLLPQGISPVSQHDATWALYN, the protein stability index rises from 1.72 to 1.79.

Going from PILRLLPQGISPVSQHCATWALYN to PILRLLHQGISPVSQHWATWALYN, the protein stability index rises from 2.27 to 5.21.

Going from PILRLLAQGISPVSQHWATWALYN to PILRLLTQGISPVSQHWATWALYN, the protein stability index rises from 2.22 to 3.41.

First: PILRLLDQGISPVSQHWATWALYN
Second: PILRLLRQGISPVSQHWATWALYN
The protein stability index of the first is higher: 2.52 for the first, 1.55 for the second.

Compared with PILRLLCQGISPVSQHWATWALYN, PILRLLEQGISPVSQHWATWALYN is higher in protein stability index: 2.12 for the first, 3.19 for the second.

Going from PILRLLWQGISPVSQHWATWALYN to PILRLLFQGISPVSQHWATWALYN, the protein stability index rises from 1.97 to 2.8.

Compared with PILRLLVQGISPVSQHWATWALYN, PILRLLMQGISPVSQHWATWALYN is higher in protein stability index: 1.65 for the first, 3.56 for the second.

First: PILRLLPQIISPVSQHWATWALYN
Second: PILRLLPQNISPVSQHWATWALYN
The protein stability index of the first is higher: 2.95 for the first, 2.01 for the second.

Going from PILRLLPQTISPVSQHWATWALYN to PILRLLPQKISPVSQHWATWALYN, the protein stability index rises from 2.8 to 3.57.

First: PILRLLPQHISPVSQHWATWALYN
Second: PILRLLPQQISPVSQHWATWALYN
The protein stability index of the first is higher: 5.34 for the first, 1.97 for the second.

First: PILRLLPQSISPVSQHWATWALYN
Second: PILRLLPQFISPVSQHWATWALYN
The protein stability index of the first is lower: 2.01 for the first, 2.78 for the second.

Compared with PILRVLPQGISPVSQHWATWALYN, PILRKLPQGISPVSQHWATWALYN is lower in protein stability index: 3.75 for the first, 1.25 for the second.

Compared with PILRDLPQGISPVSQHWATWALYN, PILRNLPQGISPVSQHWATWALYN is lower in protein stability index: 2.04 for the first, 1.99 for the second.

Going from PILRTLPQGISPVSQHWATWALYN to PILRGLPQGISPVSQHWATWALYN, the protein stability index rises from 1.14 to 3.62.

First: PILRFLPQGISPVSQHWATWALYN
Second: PILRYLPQGISPVSQHWATWALYN
The protein stability index of the first is higher: 2.22 for the first, 1.77 for the second.

First: PILRMLPQGISPVSQHWATWALYN
Second: PILRQLPQGISPVSQHWATWALYN
The protein stability index of the first is higher: 3.4 for the first, 1.95 for the second.

First: PILRRLPQGISPVSQHWATWALYN
Second: PILRHLPQGISPVSQHWATWALYN
The protein stability index of the first is lower: 1.84 for the first, 2.07 for the second.

First: PILRCLPQGISPVSQHWATWALYN
Second: PILRALPQGISPVSQHWATWALYN
The protein stability index of the first is higher: 3.09 for the first, 1.65 for the second.

Going from PILRLLPRGISPVSQHWATWALYN to PILRLLPFGISPVSQHWATWALYN, the protein stability index falls from 3.32 to 2.58.

Compared with PILRLLPKGISPVSQHWATWALYN, PILRLLPYGISPVSQHWATWALYN is lower in protein stability index: 2.29 for the first, 2.12 for the second.

Compared with PILRLLPWGISPVSQHWATWALYN, PILRLLPHGISPVSQHWATWALYN is lower in protein stability index: 3.15 for the first, 1.5 for the second.

First: PILQLLPQGISPVSQHWATWALYN
Second: PILILLPQGISPVSQHWATWALYN
The protein stability index of the first is lower: 1.4 for the first, 3.46 for the second.

Going from PILNLLPQGISPVSQHWATWALYN to PILKLLPQGISPVSQHWATWALYN, the protein stability index rises from 2.38 to 3.47.

Compared with PILFLLPQGISPVSQHWATWALYN, PILTLLPQGISPVSQHWATWALYN is lower in protein stability index: 4.37 for the first, 3.54 for the second.

Going from PILLLLPQGISPVSQHWATWALYN to PILYLLPQGISPVSQHWATWALYN, the protein stability index rises from 1.38 to 3.25.

Going from PILSLLPQGISPVSQHWATWALYN to PILHLLPQGISPVSQHWATWALYN, the protein stability index rises from 2.24 to 2.46.

Going from PILVLLPQGISPVSQHWATWALYN to PILWLLPQGISPVSQHWATWALYN, the protein stability index rises from 2.42 to 2.54.
